Assay: Atomic force microscopy studies for fibrillation (glucagon)
Type: physicochemical
Conditions: 287 mM, Milli-Q water pH 2, 37° C., 4 days
Protocol: For atomic force microscopy experiments, 287 mM solutions of glucagon and glycoglucagon prepared by dissolving each of glucagon and glycoglucagon obtained in Example 9 in Milli-Q water, adjusted to pH 2 with HCl were incubated at 37° C. for four days. Topographic images of glucagon aggregates were collected with a Dimension iCon Atomic Force Microscopy (Bruker, Billerica, MA, USA). Tapping mode atomic force microscopy (AFM) images were recorded using silicon cantilevers (model RTESPA, Veeco, Santa Barbara, CA) with resonance frequency ˜300 kHz, nominal tip radius 8 nm and nominal spring constant 42 N/m.
Representative AFM height images are shown in FIG. 11, of (A) glucagon (287 mM) and (B) glycoglucagon (287 mM) incubated at 37° C. for 4 days. The vertical colour scale is (A) 6 nm and (B) 3 nm. Scan size: 10×5 μm^2. Each of the images of FIG. 11 are representative of 3-5 scans at different locations with varying scan sizes from 1-10 micron.

native glucagon: human glucagon peptide (SEQ ID NO:5), synthesised by solid phase synthesis [reference compound]
fibril formation (AFM): forms fibrils

Source: patent US20230365623A1, “DERIVATISATION OF PEPTIDES AND PROTEINS” (FLOREY INSTITUTE OF NEUROSCIENCE AND MENTAL HEALTH, priority 2020, published 2023)
